T1: G9a and GLP (Homo sapiens, UniProt Q96KQ7+Q9H9B1)
T1 sequence (Q96KQ7 2-1210 limits assumed): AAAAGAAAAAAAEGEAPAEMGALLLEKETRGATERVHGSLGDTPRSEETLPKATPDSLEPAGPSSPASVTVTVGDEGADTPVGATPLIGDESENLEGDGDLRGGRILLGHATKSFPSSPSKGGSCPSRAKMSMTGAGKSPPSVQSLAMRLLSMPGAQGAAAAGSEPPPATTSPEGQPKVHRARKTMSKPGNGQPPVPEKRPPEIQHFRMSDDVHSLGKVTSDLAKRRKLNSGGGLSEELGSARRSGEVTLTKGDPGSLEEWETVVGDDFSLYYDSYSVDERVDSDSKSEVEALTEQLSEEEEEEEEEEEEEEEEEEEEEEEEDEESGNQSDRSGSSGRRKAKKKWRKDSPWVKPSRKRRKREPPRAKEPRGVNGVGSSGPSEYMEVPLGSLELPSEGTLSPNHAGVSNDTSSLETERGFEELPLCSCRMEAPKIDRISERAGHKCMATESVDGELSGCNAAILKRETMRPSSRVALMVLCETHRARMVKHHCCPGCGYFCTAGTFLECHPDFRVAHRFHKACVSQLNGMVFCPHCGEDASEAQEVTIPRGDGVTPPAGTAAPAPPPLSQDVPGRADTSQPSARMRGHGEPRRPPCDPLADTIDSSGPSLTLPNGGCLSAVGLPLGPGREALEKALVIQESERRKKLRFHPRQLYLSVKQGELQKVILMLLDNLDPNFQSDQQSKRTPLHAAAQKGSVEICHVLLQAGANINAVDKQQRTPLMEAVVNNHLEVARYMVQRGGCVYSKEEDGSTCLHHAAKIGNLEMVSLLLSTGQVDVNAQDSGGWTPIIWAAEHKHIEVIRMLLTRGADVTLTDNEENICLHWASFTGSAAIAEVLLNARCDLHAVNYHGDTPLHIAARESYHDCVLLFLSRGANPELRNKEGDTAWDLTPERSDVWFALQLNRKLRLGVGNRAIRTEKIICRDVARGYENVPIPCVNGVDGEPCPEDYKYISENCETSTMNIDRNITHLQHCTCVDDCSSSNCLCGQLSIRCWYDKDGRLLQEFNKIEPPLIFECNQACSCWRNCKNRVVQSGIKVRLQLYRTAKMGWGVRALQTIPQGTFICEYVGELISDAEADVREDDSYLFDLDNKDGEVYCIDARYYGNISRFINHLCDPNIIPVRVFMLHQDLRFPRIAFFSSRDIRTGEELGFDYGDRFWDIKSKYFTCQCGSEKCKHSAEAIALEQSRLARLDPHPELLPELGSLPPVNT
T1 sequence (Q9H9B1 2-1298 limits assumed): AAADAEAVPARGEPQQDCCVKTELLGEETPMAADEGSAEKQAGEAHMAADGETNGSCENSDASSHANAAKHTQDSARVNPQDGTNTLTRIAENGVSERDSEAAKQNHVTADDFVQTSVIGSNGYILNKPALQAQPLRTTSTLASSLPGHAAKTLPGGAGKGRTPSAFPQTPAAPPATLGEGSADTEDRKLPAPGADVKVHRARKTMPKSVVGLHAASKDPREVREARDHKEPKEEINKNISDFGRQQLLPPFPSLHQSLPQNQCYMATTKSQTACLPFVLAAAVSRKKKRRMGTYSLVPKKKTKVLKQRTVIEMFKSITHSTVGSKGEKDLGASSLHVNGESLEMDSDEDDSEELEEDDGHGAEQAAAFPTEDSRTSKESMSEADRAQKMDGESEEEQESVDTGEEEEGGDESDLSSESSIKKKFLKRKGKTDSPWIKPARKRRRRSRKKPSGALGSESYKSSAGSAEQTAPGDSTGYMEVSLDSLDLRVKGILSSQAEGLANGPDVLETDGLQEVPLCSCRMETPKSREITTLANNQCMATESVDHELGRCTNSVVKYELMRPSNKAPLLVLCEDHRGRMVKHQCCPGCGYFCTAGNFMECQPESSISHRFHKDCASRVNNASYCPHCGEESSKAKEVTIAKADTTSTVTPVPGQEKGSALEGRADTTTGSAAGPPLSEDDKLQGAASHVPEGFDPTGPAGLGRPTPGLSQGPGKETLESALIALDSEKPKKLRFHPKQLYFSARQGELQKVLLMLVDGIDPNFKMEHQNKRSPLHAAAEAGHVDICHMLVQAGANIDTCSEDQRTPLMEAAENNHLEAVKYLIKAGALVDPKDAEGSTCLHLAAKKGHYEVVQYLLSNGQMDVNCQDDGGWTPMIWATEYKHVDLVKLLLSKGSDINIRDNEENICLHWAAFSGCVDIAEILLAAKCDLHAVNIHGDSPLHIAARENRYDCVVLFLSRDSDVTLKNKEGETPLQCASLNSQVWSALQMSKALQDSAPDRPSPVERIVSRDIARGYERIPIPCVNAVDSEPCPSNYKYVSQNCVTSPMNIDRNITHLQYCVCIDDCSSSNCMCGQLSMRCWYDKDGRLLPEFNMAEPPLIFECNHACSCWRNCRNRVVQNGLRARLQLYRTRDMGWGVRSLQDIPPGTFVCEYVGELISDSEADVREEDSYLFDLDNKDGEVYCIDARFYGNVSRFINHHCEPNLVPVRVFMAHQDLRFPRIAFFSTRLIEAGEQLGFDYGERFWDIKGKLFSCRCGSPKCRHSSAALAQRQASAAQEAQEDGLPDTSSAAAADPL

B1: SRBD1 (protein, UniProt Q8N5C6 1-995, looked up)
S1 RNA-binding …: MSSLPRRAKVQVQDVVLKDEFSSFSELSSASEEDDKEDSAWEPQKKVPRSRKQPPPKESKPKRMPRVKKNAPQISDGSEVVVVKEELNSSVAIADTALEDRKNKLDTVQTLKTAKTKQKCAAQPHTVRRTKKLKVEEETSKASNLEGESNSSETPSTSTVWGGTCKKEENDDDFTFGQSALKKIKTETYPQGQPVKFPANANSTKEEVEMNWDMVQVLSERTNIEPWVCANIIRLFNDDNTIPFIIRYRKELINNLDADSLREVQQTLEELRAVAKKVHSTIQKIKKEGKMSECLLKAMLNCKTFEELEHVSAPYKTGSKGTKAQRARQLGLEGAARALLEKPGELSLLSYIRPDVKGLSTLQDIEIGVQHILADMIAKDKDTLDFIRNLCQKRHVCIQSSLAKVSSKKVNEKDVDKFLLYQHFSCNIRNIHHHQILAINRGENLKVLTVKVNISDGVKDEFCRWCIQNRWRPRSFARPELMKILYNSLNDSFKRLIYPLLCREFRAKLTSDAEKESVMMFGRNLRQLLLTSPVPGRTLMGVDPGYKHGCKLAIISPTSQILHTDVVYLHCGQGFREAEKIKTLLLNFNCSTVVIGNGTACRETEAYFADLIMKNYFAPLDVVYCIVSEAGASIYSVSPEANKEMPGLDPNLRSAVSIARRVQDPLAELVKIEPKHIGVGMYQHDVSQTLLKATLDSVVEECVSFVGVDINICSEVLLRHIAGLNANRAKNIIEWREKNGPFINREQLKKVKGLGPKSFQQCAGFIRINQDYIRTFCSQQTETSGQIQGVAVTSSADVEVTNEKQGKKKSKTAVNVLLKPNPLDQTCIHPESYDIAMRFLSSIGGTLYEVGKPEMQQKINSFLEKEGMEKIAERLQTTVHTLQVIIDGLSQPESFDFRTDFDKPDFKRSIVCLEDLQIGTVLTGKVENATLFGIFVDIGVGKSGLIPIRNVTEAKLSKTKKRRSLGLGPGERVEVQVLNIDIPRSRITLDLIRVL
B2: PRPF38B (protein, UniProt Q5VTL8 2-546, looked up)
Pre-mRNA-splicing factor 38B: ANNSPALTGNSQPQHQAAAAAAQQQQQCGGGGATKPAVSGKQGNVLPLWGNEKTMNLNPMILTNILSSPYFKVQLYELKTYHEVVDEIYFKVTHVEPWEKGSRKTAGQTGMCGGVRGVGTGGIVSTAFCLLYKLFTLKLTRKQVMGLITHTDSPYIRALGFMYIRYTQPPTDLWDWFESFLDDEEDLDVKAGGGCVMTIGEMLRSFLTKLEWFSTLFPRIPVPVQKNIDQQIKTRPRKIKKDGKEGAEEIDRHVERRRSRSPRRSLSPRRSPRRSRSRSHHREGHGSSSFDRELEREKERQRLEREAKEREKERRRSRSIDRGLERRRSRSRERHRSRSRSRDRKGDRRDRDREREKENERGRRRDRDYDKERGNEREKERERSRERSKEQRSRGEVEEKKHKEDKDDRRHRDDKRDSKKEKKHSRSRSRERKHRSRSRSRNAGKRSRSRSKEKSSKHKNESKEKSNKRSRSGSQGRTDSVEKSKKREHSPSKEKSRKRSRSKERSHKRDHSDSKDQSDKHDRRRSQSIEQESQEKQHKNKDETV
B3: CSDE1 (protein, UniProt O75534 1-798, looked up)
Cold shock domain-containing …: MSFDPNLLHNNGHNGYPNGTSAALRETGVIEKLLTSYGFIQCSERQARLFFHCSQYNGNLQDLKVGDDVEFEVSSDRRTGKPIAVKLVKIKQEILPEERMNGQVVCAVPHNLESKSPAAPGQSPTGSVCYERNGEVFYLTYTPEDVEGNVQLETGDKINFVIDNNKHTGAVSARNIMLLKKKQARCQGVVCAMKEAFGFIERGDVVKEIFFHYSEFKGDLETLQPGDDVEFTIKDRNGKEVATDVRLLPQGTVIFEDISIEHFEGTVTKVIPKVPSKNQNDPLPGRIKVDFVIPKELPFGDKDTKSKVTLLEGDHVRFNISTDRRDKLERATNIEVLSNTFQFTNEAREMGVIAAMRDGFGFIKCVDRDVRMFFHFSEILDGNQLHIADEVEFTVVPDMLSAQRNHAIRIKKLPKGTVSFHSHSDHRFLGTVEKEATFSNPKTTSPNKGKEKEAEDGIIAYDDCGVKLTIAFQAKDVEGSTSPQIGDKVEFSISDKQRPGQQVATCVRLLGRNSNSKRLLGYVATLKDNFGFIETANHDKEIFFHYSEFSGDVDSLELGDMVEYSLSKGKGNKVSAEKVNKTHSVNGITEEADPTIYSGKVIRPLRSVDPTQTEYQGMIEIVEEGDMKGEVYPFGIVGMANKGDCLQKGESVKFQLCVLGQNAQTMAYNITPLRRATVECVKDQFGFINYEVGDSKKLFFHVKEVQDGIELQAGDEVEFSVILNQRTGKCSACNVWRVCEGPKAVAAPRPDRLVNRLKNITLDDASAPRLMVLRQPRGPDNSMGFGAERKIRQAGVID
B4: PRPF19 (protein, UniProt Q9UMS4 2-504, looked up)
Pre-mRNA-processing factor 19: SLICSISNEVPEHPCVSPVSNHVYERRLIEKYIAENGTDPINNQPLSEEQLIDIKVAHPIRPKPPSATSIPAILKALQDEWDAVMLHSFTLRQQLQTTRQELSHALYQHDAACRVIARLTKEVTAAREALATLKPQAGLIVPQAVPSSQPSVVGAGEPMDLGELVGMTPEIIQKLQDKATVLTTERKKRGKTVPEELVKPEELSKYRQVASHVGLHSASIPGILALDLCPSDTNKILTGGADKNVVVFDKSSEQILATLKGHTKKVTSVVFHPSQDLVFSASPDATIRIWSVPNASCVQVVRAHESAVTGLSLHATGDYLLSSSDDQYWAFSDIQTGRVLTKVTDETSGCSLTCAQFHPDGLIFGTGTMDSQIKIWDLKERTNVANFPGHSGPITSIAFSENGYYLATAADDSSVKLWDLRKLKNFKTLQLDNNFEVKSLIFDQSGTYLALGGTDVQIYICKQWTEILHFTEHSGLTTGVAFGHHAKFIASTGMDRSLKFYSL

How the values were obtained:
3×MBT domain of L3MBTL1 = experiment: Triple SILAC pull-down, 3xMBT/3xMBTD355N ratio (cytoplasmic, nuclear and chromatin fractions of 293T cells); assay type: binding, human; conditions: SILAC ratio, pull-down 3xMBT vs 3xMBTD355N; for 3xMBT/D355N UNC Heavy: experiment with UNC0638 in heavy SILAC media; for 3xMBT/D355N UNC Light: experiment with UNC0638 in light SILAC media;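 as to all read-outs here: proteins quantified with MaxQuant, requiring at least two unique peptides and quantification in both label directions, normalized to the mean of proteins from a digested loading control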
G9a and GLP = molecular target: T1, G9a and GLP; experiment: Triple SILAC pull-down after UNC0638 treatment of 293T cells, DMSO/UNC0638 ratio of protein captured by 3×MBT; assay type: cell-based; set-up: endogenous in cells; host or cells: HEK 293T; conditions: for Relative to UNC0638 UNC Heavy / Relative to UNC0638 UNC Light: SILAC ratio DMSO/UNC0638 of protein pulled down with 3xMBT; for Relative to UNC0638 UNC Heavy: UNC0638 in heavy SILAC media; for Relative to UNC0638 UNC Light: UNC0638 in light SILAC media; for Relative to UNC0638 Average: average of UNC Light and UNC Heavy experiments;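 as to all read-outs here: mass spectrometry (Q-Exactive) SILAC quantitation, DMSO/UNC0638 ratio computed after subtracting 3×MBTD355N mutant pull-down background, only proteins with at least twofold 3×MBT over mutant signal considered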

Molecule	3xMBT/D355N UNC Heavy (3×MBT domain of L3MBTL1) [log base 2]	3xMBT/D355N UNC Light (3×MBT domain of L3MBTL1) [log base 2]	Relative to UNC0638 UNC Heavy (G9a and GLP) [log base 2]	Relative to UNC0638 UNC Light (G9a and GLP) [log base 2]	Relative to UNC0638 Average (G9a and GLP) [log base 2]
B1	1.02	1.29	−0.13	0.37	0.12
B2	2.44	2.96	−0.03	0.26	0.12
B3	2.33	2.17	0.16	0.08	0.12
B4	2.05	1.97	0.39	−0.15	0.12
